Our source for the binding result and Kd values is paper PMC3578133 (Cancer research, 2012).

Test [1] addresses T1, recombinant full length flag-tagged N-CoR (amino-acid 1-2440) (human, UniProt O75376 1-2440). Description: co-IP.
In test [2] the target is T1, recombinant full length flag-tagged …. The test is described as follows: SPR. A general note: Surface plasmon resonance follows binding to a sensor surface in real time, without labels.

T1 sequence (O75376 whole entry): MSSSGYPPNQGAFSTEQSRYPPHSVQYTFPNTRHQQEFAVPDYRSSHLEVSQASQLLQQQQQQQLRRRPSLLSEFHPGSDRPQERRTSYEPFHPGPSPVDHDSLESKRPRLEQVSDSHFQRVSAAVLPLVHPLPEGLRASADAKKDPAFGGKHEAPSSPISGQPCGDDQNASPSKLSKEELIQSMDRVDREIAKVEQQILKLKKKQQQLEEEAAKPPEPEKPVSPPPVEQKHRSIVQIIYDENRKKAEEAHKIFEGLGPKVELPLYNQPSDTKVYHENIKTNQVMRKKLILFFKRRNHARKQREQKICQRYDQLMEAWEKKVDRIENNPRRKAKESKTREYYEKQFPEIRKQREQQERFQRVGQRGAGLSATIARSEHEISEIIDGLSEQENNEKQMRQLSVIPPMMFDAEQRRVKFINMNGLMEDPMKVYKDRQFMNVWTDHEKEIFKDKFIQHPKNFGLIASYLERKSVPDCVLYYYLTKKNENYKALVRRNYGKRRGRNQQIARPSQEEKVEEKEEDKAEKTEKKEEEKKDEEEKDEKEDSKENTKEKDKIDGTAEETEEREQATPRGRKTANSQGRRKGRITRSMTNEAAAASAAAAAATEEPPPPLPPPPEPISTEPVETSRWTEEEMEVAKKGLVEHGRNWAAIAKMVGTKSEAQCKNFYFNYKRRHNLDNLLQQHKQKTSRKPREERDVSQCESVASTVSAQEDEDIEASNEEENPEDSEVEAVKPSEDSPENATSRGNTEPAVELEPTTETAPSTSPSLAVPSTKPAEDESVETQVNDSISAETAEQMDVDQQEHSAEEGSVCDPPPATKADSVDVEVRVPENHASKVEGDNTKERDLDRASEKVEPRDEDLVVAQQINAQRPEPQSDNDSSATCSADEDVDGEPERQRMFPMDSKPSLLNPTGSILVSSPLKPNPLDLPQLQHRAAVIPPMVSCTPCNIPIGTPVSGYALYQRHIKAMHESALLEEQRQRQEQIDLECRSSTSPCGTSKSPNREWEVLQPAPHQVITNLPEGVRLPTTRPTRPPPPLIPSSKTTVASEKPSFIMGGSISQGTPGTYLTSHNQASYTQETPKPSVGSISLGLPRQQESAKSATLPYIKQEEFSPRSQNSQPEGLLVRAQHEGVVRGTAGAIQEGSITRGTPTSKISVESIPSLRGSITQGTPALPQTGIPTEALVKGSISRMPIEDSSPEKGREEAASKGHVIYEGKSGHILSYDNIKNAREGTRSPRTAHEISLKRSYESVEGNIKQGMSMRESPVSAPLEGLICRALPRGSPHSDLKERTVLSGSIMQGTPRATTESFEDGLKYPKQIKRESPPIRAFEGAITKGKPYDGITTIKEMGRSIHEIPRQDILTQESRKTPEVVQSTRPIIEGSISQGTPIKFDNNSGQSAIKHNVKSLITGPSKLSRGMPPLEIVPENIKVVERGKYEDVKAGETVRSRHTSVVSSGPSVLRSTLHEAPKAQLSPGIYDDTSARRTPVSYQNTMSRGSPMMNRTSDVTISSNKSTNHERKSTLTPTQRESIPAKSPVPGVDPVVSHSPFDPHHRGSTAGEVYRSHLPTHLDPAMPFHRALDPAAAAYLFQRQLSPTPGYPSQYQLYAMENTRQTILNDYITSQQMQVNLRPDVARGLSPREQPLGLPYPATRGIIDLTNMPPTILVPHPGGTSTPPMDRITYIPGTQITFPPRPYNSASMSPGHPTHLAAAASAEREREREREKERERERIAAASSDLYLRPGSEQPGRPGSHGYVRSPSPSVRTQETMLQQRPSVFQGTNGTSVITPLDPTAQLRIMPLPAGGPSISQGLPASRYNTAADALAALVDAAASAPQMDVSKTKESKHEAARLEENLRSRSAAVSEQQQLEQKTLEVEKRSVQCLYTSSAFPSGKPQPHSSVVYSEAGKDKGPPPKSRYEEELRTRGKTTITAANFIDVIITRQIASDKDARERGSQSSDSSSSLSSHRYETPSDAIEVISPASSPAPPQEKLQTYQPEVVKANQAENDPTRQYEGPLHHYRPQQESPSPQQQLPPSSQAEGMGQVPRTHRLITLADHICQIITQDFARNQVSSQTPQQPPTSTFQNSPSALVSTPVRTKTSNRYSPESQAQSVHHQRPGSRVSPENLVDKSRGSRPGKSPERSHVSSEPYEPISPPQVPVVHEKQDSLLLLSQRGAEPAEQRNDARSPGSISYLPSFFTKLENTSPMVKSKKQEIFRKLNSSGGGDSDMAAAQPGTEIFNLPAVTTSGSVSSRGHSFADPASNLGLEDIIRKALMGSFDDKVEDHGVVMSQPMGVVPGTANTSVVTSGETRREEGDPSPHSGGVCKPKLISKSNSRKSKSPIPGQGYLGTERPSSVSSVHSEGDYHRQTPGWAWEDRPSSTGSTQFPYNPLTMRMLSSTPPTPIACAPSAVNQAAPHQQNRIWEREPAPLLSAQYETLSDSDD

B1: recombinant GST-tagged HDAC4 (amino acid 627-1085) (domain or fragment, human, UniProt P56524 627-1084, looked up)
chain: LSRAQSSPASATFPVSVQEPPTKPRFTTGLVYDTLMLKHQCTCGSSSSHPEHAGRIQSIWSRLQETGLRGKCECIRGRKATLEELQTVHSEAHTLLYGTNPLNRQKLDSKKLLGSLASVFVRLPCGGVGVDSDTIWNEVHSAGAARLAVGCVVELVFKVATGELKNGFAVVRPPGHHAEESTPMGFCYFNSVAVAAKLLQQRLSVSKILIVDWDVHHGNGTQQAFYSDPSVLYMSLHRYDDGNFFPGSGAPDEVGTGPGVGFNVNMAFTGGLDPPMGDAEYLAAFRTVVMPIASEFAPDVVLVSSGFDAVEGHPTPLGGYNLSARCFGYLTKQLMGLAGGRIVLALEGGHDLTAICDASEACVSALLGNELDPLPEKVLQQRPNANAVRSMEKVMEIHSKYWRCLQRTTSTAGRSLIEAQTCENEEAETVTAMASLSVGVKPAEKRPDEEPMEEEPPL
For B1, the binding result in test [1] is reported as “binds”.

B2: human full length N-terminal GST-tagged HDAC4 (natural protein, UniProt P56524 1-1084, looked up)
chain: MSSQSHPDGLSGRDQPVELLNPARVNHMPSTVDVATALPLQVAPSAVPMDLRLDHQFSLPVAEPALREQQLQQELLALKQKQQIQRQILIAEFQRQHEQLSRQHEAQLHEHIKQQQEMLAMKHQQELLEHQRKLERHRQEQELEKQHREQKLQQLKNKEKGKESAVASTEVKMKLQEFVLNKKKALAHRNLNHCISSDPRYWYGKTQHSSLDQSSPPQSGVSTSYNHPVLGMYDAKDDFPLRKTASEPNLKLRSRLKQKVAERRSSPLLRRKDGPVVTALKKRPLDVTDSACSSAPGSGPSSPNNSSGSVSAENGIAPAVPSIPAETSLAHRLVAREGSAAPLPLYTSPSLPNITLGLPATGPSAGTAGQQDAERLTLPALQQRLSLFPGTHLTPYLSTSPLERDGGAAHSPLLQHMVLLEQPPAQAPLVTGLGALPLHAQSLVGADRVSPSIHKLRQHRPLGRTQSAPLPQNAQALQHLVIQQQHQQFLEKHKQQFQQQQLQMNKIIPKPSEPARQPESHPEETEEELREHQALLDEPYLDRLPGQKEAHAQAGVQVKQEPIESDEEEAEPPREVEPGQRQPSEQELLFRQQALLLEQQRIHQLRNYQASMEAAGIPVSFGGHRPLSRAQSSPASATFPVSVQEPPTKPRFTTGLVYDTLMLKHQCTCGSSSSHPEHAGRIQSIWSRLQETGLRGKCECIRGRKATLEELQTVHSEAHTLLYGTNPLNRQKLDSKKLLGSLASVFVRLPCGGVGVDSDTIWNEVHSAGAARLAVGCVVELVFKVATGELKNGFAVVRPPGHHAEESTPMGFCYFNSVAVAAKLLQQRLSVSKILIVDWDVHHGNGTQQAFYSDPSVLYMSLHRYDDGNFFPGSGAPDEVGTGPGVGFNVNMAFTGGLDPPMGDAEYLAAFRTVVMPIASEFAPDVVLVSSGFDAVEGHPTPLGGYNLSARCFGYLTKQLMGLAGGRIVLALEGGHDLTAICDASEACVSALLGNELDPLPEKVLQQRPNANAVRSMEKVMEIHSKYWRCLQRTTSTAGRSLIEAQTCENEEAETVTAMASLSVGVKPAEKRPDEEPMEEEPPL
For B2, the equilibrium dissociation constant (Kd) (usually the free concentration of one partner at which half of the binding sites on the other are occupied at equilibrium, for simple one-to-one binding) in test [2] came to 1 nM.
